B1: Circularin A (protein, listed as Clostridium beijerinckii)
chain: SIASGGAGTLMTIGWATFKATVQKLAKQSMARAIAYVAGALGVQTAAATTIVNVILNAGTLVTVLGIIA
modifications: circularized via Npu split intein; Circularin A (CirA); ATCC 25752
notes: circular bacteriocin of Clostridium beijerinckii ATCC 25752
B2: DSM 15102: putative circular bacteriocin of Garciella nitratireducens DSM 15102; SEQ ID NO: 832 circularized with Npu split intein (protein, listed as Garciella nitratireducens)
chain: SMLGISTVAAKKVIDIIDTASTVATIISLIGVIVGVGGITAGLVTTAKAMIKKYGKKYATMWLA
modifications: circularized via Npu split intein; Bacteriocin DSM 15102; Strain DSM 15102
B3: Enterocin NKR-5-3B (protein, listed as Enterococcus faecium)
chain: SSYAAKKVIDIINTGSAVATIIALVTAVVGGGLITAGIVATAKSLIKKYGAKYAAAWLTANLGI
modifications: circularized via Npu split intein; Strain NKR-5-3; Enterocin NKR-5-3B
notes: circular bacteriocin of Enterococcus faecium NKR-5-3
B4: Bacteriocin BCW 2997: putative circular bacteriocin of Listeria monocytogenes BCW 2997; SEQ ID NO: 818 circularized with Npu split intein (protein)
chain: SIKVYLKKQIKKKGRKAVIAWLAKEFGIPGGVAATVLNIVEAGGWATTILSILTAVGSGGLSLIAAAGKE
modifications: circularized via Npu split intein; Strain BCW 2997; Bacteriocin BCW 2997; Listeria monocytogenes
B5: Bacteriocin YS111: putative circular bacteriocin of Streptococcus suis YS111; SEQ ID NO: 828 circularized with Npu split intein (protein, listed as Streptococcus suis)
chain: STVVNVILGAGTAVTILGIISSIASGGATTLLTVGWAGFKATVQRLAKQSMARAIAYVAAALGVPSAVA
modifications: circularized via Npu split intein; Strain YS111; Bacteriocin YS111
B6: Leucocyclicin Q (protein)
chain: SKSLANTILGAIAVGNLASWLLALVPGPGWATKAALATAETIVKHEGKAAAIAWLVNQLGI
modifications: circularized via Npu split intein; Strain TK41401; Leucocyclicin Q; Leuconostoc mesenteroides
notes: circular bacteriocin of Leuconostoc mesenteroides TK41401
B7: Bacteriocin 3688STDY6124959: putative circular bacteriocin of Staphylococcus aureus 3688STDY6124959; SEQ ID NO: 814 circularized with Npu split intein (protein, listed as Staphylococcus aureus)
chain: STLGISSYAAKKAIDIIAAAGDVAAIVGLIGAVTGAGAIGAGILFTAKKLIKSYGKKYAAAWLT
modifications: circularized via Npu split intein; Bacteriocin 3688STDY6124959; Strain 3688STDY6124959
B8: Amylocyclicin (protein, listed as Bacillus amyloliquefaciens)
chain: STAAAKKAIDIIDAASTIASIISLIGIVTGAGAISYAIVATAKTMIKKYGKKYAAAWLASTLGI
modifications: circularized via Npu split intein; Strain FZB42; Amylocyclicin (Alc)
notes: circular bacteriocin of Bacillus amyloliquefaciens FZB42
B9: Uberolysin A (protein, listed as Streptococcus uberis)
chain: SGTAKKVVDAIDKGAAAFVIISIISTVISAGALGAVSASADFIILTVKNYISRNLKAQAVIWLAGYTGIA
modifications: circularized via Npu split intein; Uberolysin A (UberA); Strain 42
notes: circular bacteriocin of Streptococcus uberis 42
B10: Enterocin AS-48 (protein, listed as Enterococcus faecalis)
chain: SIKAYLKKEIKKKGKRAVIAWMAKEFGIPAAVAGTVLNVVEAGGWVTTIVSILTAVGSGGLSLLAAAGRE
modifications: circularized via Npu split intein; Enterocin AS-48 (EntAS48); Strain 48
notes: circular bacteriocin of Enterococcus faecalis S-48

What was measured:
L. lactis IL1403 = assay: Antimicrobial activity (halo of inhibition on petri dishes) of cell-free produced, intein-circularized bacteriocins against indicator L. lactis IL1403; type: cell-based, Lactococcus lactis; design: key: +: Bacteriocins showing a halo of inhibition against at least one of the indicators were considered as positive; settings: bacteriocins circularized with inteins; cell free production and overnight incubation at room temperature
Protocol: (§1) Recombinant vectors were stabilized and amplified in E. coli DH5a standard strain and used as templates for cell-free protein synthesis using PURExpress® in vitro Protein Synthesis Kit (New England Biolabs). All bacteriocins synthesized were tested on petri dishes for antimicrobial activity against an indicator strain. Bacteriocins showing a halo of inhibition against at least one of the indicators were considered as positive.
(§2) Following the same scheme as for GarML, different plasmids containing genes coding for recombinant proteins containing Npu IC and IN fused to the mature amino acid sequence of different known and hypothetical circular bacteriocins were synthesized. The circularization point for all of them was changed with respect to the native peptides so they all would start with a Ser in position 1 (Table 2.1). The Ssra tag was also added to the C-terminus. […] Plasmids synthesized were used as templates for cell free protein production. Antimicrobial activity of the peptides obtained after cell free production and overnight incubation at room temperature were tested against indicator L. lactis IL1403.

P. pentosaceus HELA = assay: Antimicrobial activity (halo of inhibition on petri dishes) of cell-free produced, intein-circularized bacteriocins against indicator P. pentosaceus HELA; type: cell-based; design: key: +: Bacteriocins showing a halo of inhibition against at least one of the indicators were considered as positive; settings: bacteriocins circularized with inteins; cell free production
Protocol: as §1, §2

L. inocua = assay: Antimicrobial activity (halo of inhibition on petri dishes) of cell-free produced, intein-circularized bacteriocins against indicator L. inocua; type: cell-based; design: key: +: Bacteriocins showing a halo of inhibition against at least one of the indicators were considered as positive; settings: bacteriocins circularized with inteins; cell free production
Protocol: as §1, §2

L. lactis = assay: Controlling growth of contaminating L. lactis in a culture medium with a circular bacteriocin (Examples 5 and 6); type: cell-based
Source text: A polypeptide containing an amino acid sequence of a circular bacteriocin, for example Enterocin AS-48, flanked by a split intein is produced. The split intein is a conditionally active, pH-sensitive split intein, and is configured to circularize the bacteriocin when the pH is below 6.0. The polypeptide is introduced into a culture medium growing a microbial organism of interest, at pH 7.0. […] When a contaminating microbial species, L. lactis, is detected in the culture medium, the pH of the medium is reduced to below 6.0, which activates the split intein and causes the bacteriocin to circularize. Subsequently, the growth of the contaminating L. lactis in the culture medium is inhibited.
A microbial cell is genetically engineered with an expression vector encoding a circular bacteriocin, for example Leucocyclicin Q, flanked by a split intein. The genetically engineered microbial cell is introduced into a culture medium growing a microbial organism of interest. The microbial cell produces the bacteriocin in circularized form, and secretes it into the culture medium. Growth of a contaminating microbial species, L. lactis, is inhibited by the circular bacteriocin.

| Molecule | Antimicrobial activity, Indicator L. lactis IL1403 (L. lactis IL1403) | further results |
| --- | --- | --- |
| Bacteriocin NCTC 12958: putative circular bacteriocin of Streptococcus thermophilus NCTC 12958; SEQ ID NO: 854 circularized with Npu split intein (SAGGSIVDAFAIIAGITLPAWVAPVLAGFGVVSAIYWICGKFGIRLAPGWYQDIVDFV; circularized via Npu split intein; Bacteriocin NCTC 12958; Strain NCTC 12958; listed as Streptococcus thermophilus) | + |  |
| Carnocyclin A (SLINAGLTVGSIISILGGVTVGLSGVFTAVKAAIAKQGIKKAIQLLVAYGIAQGTAEKVV; circularized via Npu split intein; Carnocyclin A; Strain UAL307; listed as Carnobacterium maltaromaticum) [circular bacteriocin of Carnobacterium maltaromaticum UAL307] | + |  |
| Garvicin ML (SGAFTAAGGIMALIKKYAQKKLWKQLIAALVATGMAAGVAKTIVNAVSAGMDIATALSLF; circularized via Npu split intein; Garvicin ML (GarML); Strain DCC43; listed as Lactococcus garvieae) [circular bacteriocin of Lactococcus garvieae DCC43] | + |  |
| Gassericin A (SGASLGTAFAAILGVTLPAWALAAAGALGATAAIYWIADQFGIHLATGTARKLLDAMA; circularized via Npu split intein; Strain LA39; Gassericin A (GasA); listed as Lactobacillus gasseri) [circular bacteriocin of Lactobacillus gasseri LA39] | + | Antimicrobial activity, Indicator P. pentosaceus HELA (P. pentosaceus HELA): +; Antimicrobial activity, Indicator L. inocua (L. inocua): + |
| Paracyclicin P (SAGGSLAGAFSVVAGVTLPAWIVPIATAFGAVSAIYFIANKLGIHLAPGWYQDMVNYV; circularized via Npu split intein; Paracyclicin P (ParP); subsp. Paracasei JCM 8130/ DSM 5622; listed as Lactobacillus paracesei) [circular bacteriocin of Lactobacillus paracasei JCM 8130/DSM 5622] | + |  |
| Plantaricyclin A (SLTQKALDLLSAGSSLGTVAAAVLGVTLPAWAVAAAGALGGTAAIVWIAKQFGVHLTT; circularized via Npu split intein; Plantaricyclin A (PlcA); Strain NI326; listed as Lactobacillus plantarum) [circular bacteriocin of Lactobacillus plantarum NI326] | + |  |
| B1 | + |  |
| B2 | + |  |
| B3 | + | Antimicrobial activity, Indicator L. inocua (L. inocua): + |
| B4 | + |  |
| B5 | + |  |
| B6 | + | growth of contaminating L. lactis in culture medium (L. lactis; Example 6, bacteriocin secreted by genetically engineered microbial cell): inhibited |
| B7 | + |  |
| B8 | + |  |
| B9 |  | Antimicrobial activity, Indicator L. inocua (L. inocua): + |
| B10 | + | antimicrobial activity of non-circularized bacteriocin in culture medium (L. lactis; Example 5, pH-sensitive split intein, pH 7.0): does not exhibit antimicrobial activity; growth of contaminating L. lactis in culture medium (L. lactis; Example 5, pH-sensitive split intein, pH reduced to below 6.0): inhibited |

— patent US20250346639A1, “BACTERIOCIN POLYPEPTIDES, NUCLEIC ACIDS ENCODING SAME, AND METHODS OF USE THEREOF” (Syngulon SA, priority 2022, published 2025)
